The source of these data is US20230365701A1 (Pfizer, published 2023).

The target in assay [1] is T1, human LTBR protein (human, UniProt P36941 31-227, limits assumed).
T1 construct: Protein used for the KD, binning and crystallization; In the crystal the entire extracellular domain was ordered; also called lymphotoxin beta receptor; TNFR3
In words: not stated at this place (SPR by the heading before paragraph 293, where the value is repeated); human LTBR.

In assay [2] the target is T2, human LTBR on cells (endogenous on HUVEC, HT29, primary human fibroblasts and moDC; LTBR-expressing HEK293) (human, UniProt P36941 31-435).
T2 construct: also called endogenous human LTBR
In words: flow cytometry with AF647-labeled antibody on HT29 cells (endogenous human LTBR), 1.5 hours on ice. The method, then:
(§1) Endogenous human LTBR binding: 1E01 binding to endogenous LTBR on human endothelial cells (human umbilical vein endothelial cells (HUVEC)) and tumor cells (HT29 human colorectal carcinoma cells) was assessed in a flow cytometry-based assay using AF647-labeled antibody and Quantbrite™ beads. Cells were incubated with antibody for 1.5 hours on ice prior to endpoint analysis. Results confirmed the binding of 1E01 to endogenous human LTBR.
(A flow cytometer gives signals particle by particle.)

Assay [3] concerns the target cynomolgus monkey LTBR on primary cynomolgus monkey fibroblasts (cynomolgus monkey, UniProt P36941 1-435 (human entry)). In words: cell-based or functional assay.
The target in assay [4] is chimeric LTBR with a human extracellular domain and mouse transmembrane and intracellular domains, on CT26 … (human; mouse). Nature of the assay: cell-based or functional assay.
The target of assay [5] is T2, human LTBR on cells (endogenous on …). In words: cell-based or functional assay.
Assay [6] shares this target. Nature of the assay: flow cytometry with AF647-labeled antibody on HUVEC (endogenous human LTBR), 1.5 hours on ice. How it is done:
as §1

T2 sequence (P36941 31-435 limits assumed): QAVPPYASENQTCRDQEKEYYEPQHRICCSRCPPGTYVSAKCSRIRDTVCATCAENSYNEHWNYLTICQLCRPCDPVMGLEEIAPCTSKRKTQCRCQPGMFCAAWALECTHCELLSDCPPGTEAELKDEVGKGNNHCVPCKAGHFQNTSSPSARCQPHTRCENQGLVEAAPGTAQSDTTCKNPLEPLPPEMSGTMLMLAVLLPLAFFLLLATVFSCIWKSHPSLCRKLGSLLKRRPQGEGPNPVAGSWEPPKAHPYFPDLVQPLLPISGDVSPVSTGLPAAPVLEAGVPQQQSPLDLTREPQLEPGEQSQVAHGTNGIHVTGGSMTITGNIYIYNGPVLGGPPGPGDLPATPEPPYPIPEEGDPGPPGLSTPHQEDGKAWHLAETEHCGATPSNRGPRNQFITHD
Sequence of chimeric LTBR with a human extracellular domain and mouse transmembrane and intracellular domains, on CT26 … (human; mouse) (chain, as listed by the source mutant limits assumed): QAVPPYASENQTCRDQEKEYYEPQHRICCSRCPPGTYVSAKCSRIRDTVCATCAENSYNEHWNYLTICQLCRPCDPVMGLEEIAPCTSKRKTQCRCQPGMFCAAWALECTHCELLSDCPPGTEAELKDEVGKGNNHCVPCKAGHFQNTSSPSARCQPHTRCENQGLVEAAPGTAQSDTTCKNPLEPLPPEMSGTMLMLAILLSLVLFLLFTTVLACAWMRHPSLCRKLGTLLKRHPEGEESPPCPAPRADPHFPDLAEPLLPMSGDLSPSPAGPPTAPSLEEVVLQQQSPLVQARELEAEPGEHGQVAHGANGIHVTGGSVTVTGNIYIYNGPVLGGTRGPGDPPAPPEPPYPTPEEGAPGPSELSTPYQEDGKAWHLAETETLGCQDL
Sequence of cynomolgus monkey LTBR on primary cynomolgus monkey fibroblasts (P36941 other isoform, or with tags, fused parts or gaps limits assumed): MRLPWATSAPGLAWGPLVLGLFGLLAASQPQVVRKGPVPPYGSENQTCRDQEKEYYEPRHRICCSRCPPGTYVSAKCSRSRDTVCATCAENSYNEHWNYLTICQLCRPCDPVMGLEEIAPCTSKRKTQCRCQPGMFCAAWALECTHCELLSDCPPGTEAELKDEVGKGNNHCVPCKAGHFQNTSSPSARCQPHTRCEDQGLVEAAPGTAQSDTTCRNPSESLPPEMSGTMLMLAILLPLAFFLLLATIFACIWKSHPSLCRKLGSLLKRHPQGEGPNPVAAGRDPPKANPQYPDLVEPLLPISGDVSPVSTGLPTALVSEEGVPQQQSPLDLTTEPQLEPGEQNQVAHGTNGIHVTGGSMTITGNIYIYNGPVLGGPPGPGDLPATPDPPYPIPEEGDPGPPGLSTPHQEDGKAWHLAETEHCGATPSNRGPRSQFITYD
T1 sequence (P36941 31-227 limits assumed): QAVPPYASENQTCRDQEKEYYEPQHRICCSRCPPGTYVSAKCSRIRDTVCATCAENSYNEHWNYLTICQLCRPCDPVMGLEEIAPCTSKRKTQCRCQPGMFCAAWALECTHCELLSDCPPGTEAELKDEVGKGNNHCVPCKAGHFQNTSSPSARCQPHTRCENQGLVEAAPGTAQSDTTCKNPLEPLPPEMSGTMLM

B1: anti-LTBR clone 1E01 (Fab clone "1E01") (Fab, V domains shown)
VH: QVQLVQSGAEVKKPGSSVKVSCKASGGTFSSYFWSWVRQAPGQGLEWMGRFYSGGSANYNPSLKERVTITADESTSTAYMELSSLRSEDTAVYYCARERRGYSGGFEIWGQGTLVTVSS
VL: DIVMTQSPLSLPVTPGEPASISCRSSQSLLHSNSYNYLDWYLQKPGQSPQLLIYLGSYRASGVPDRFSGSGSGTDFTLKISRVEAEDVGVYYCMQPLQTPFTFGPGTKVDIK
notes: Only VH and VL are tied to the clone; also called 1E01 antibody
In general, Kd refers to the free concentration of one partner at which half of the binding sites on the other are occupied at equilibrium, for simple one-to-one binding. On to B1, for which the dissociation constant (Kd) in assay [1] was determined as 115 nM.

B2: 1E01 tetravalent antibody (antibody, human IgG1, kappa)
heavy: QVQLVQSGAEVKKPGSSVKVSCKASGGTFSSYFWSWVRQAPGQGLEWMGRFYSGGSANYNPSLKERVTITADESTSTAYMELSSLRSEDTAVYYCARERRGYSGGFEIWGQGTLVTVSSASTKGPSVFPLAPSSKSTSGGTAALGCLVKDYFPEPVTVSWNSGALTSGVHTFPAVLQSSGLYSLSSVVTVPSSSLGTQTYICNVNHKPSNTKVDKKVEPKSCGGGGSQVQLVQSGAEVKKPGSSVKVSCKASGGTFSSYFWSWVRQAPGQGLEWMGRFYSGGSANYNPSLKERVTITADESTSTAYMELSSLRSEDTAVYYCARERRGYSGGFEIWGQGTLVTVSSASTKGPSVFPLAPSSKSTSGGTAALGCLVKDYFPEPVTVSWNSGALTSGVHTFPAVLQSSGLYSLSSVVTVPSSSLGTQTYICNVNHKPSNTKVDKKVEPKSCDKTHTCPPCPAPEAAGAPSVFLFPPKPKDTLMISRTPEVTCVVVDVSHEDPEVKFNWYVDGVEVHNAKTKPREEQYNSTYRVVSVLTVLHQDWLNGKEYKCKVSNKALPAPIEKTISKAKGQPREPQVYTLPPSREEMTKNQVSLTCLVKGFYPSDIAVEWESNGQPENNYKTTPPVLDSDGSFFLYSKLTVDKSRWQQGNVFSCSVMHEALHNHYTQKSLSLSPGK
light: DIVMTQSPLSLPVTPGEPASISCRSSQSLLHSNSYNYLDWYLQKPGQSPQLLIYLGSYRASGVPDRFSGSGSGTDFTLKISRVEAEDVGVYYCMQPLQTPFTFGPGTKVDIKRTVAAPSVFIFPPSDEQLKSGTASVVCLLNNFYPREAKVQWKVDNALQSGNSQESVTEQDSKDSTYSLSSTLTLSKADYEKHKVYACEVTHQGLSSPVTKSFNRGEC
notes: Extended heavy chain VH-CH1-linker-VH-CH1-hinge-CH2-CH3; AF647-labeled in the flow cytometry assay; also called tetravalent 1E01
A word on the EC50: it is the concentration needed to bring the measured effect to its halfway point. As for B2, the EC50 amounted to 73 ng/mL in assay [2] and 76 ng/mL in assay [6]. In assay [3], the “CXCL10 Release, EC50 (ug/mL), primary cyno fibroblasts” value came out at 0.00902 µg/mL. In assay [4], the “NFkB Activation, EC50 (ug/mL), CT26 hEC-mTM-mIC NFkB luciferase reporter cells” value was found to be 0.00173 µg/mL. Further, the “CXCL10 Release, EC50 (ug/mL), primary human dermal fibroblasts” value in assay [5] stood at 0.00231 µg/mL.
